According to publication PMC5789857:

Target: TBEV envelope protein (E-protein), strain Hypr, in the purified virion (tick-borne encephalitis virus, strain Hypr) (UniProt Q01299)
Test: cryo-EM structure

TBEV envelope protein (E-protein), strain Hypr, in the purified virion (from UniProt Q01299) (natural protein)
stoichiometry N: 2
